Consider eight molecules from patent US20170295781A1 (AGROSAVFE N V, published 2017).

For assay [1], the target named is potato lectin (Sigma) (potato) (UniProt Q9S8M0). The experiment in a line: ELISA-like assay, Uvitex OB microcapsules on potato lectin-coated wells, surface coverage 20%. (An ELISA detects its analyte on a solid surface through an enzyme-linked reagent.)
Assay [2] shares this target. Nature of the assay: ELISA-like assay, Uvitex microcapsules on wells coated with 5 ug/well potato lectin, surface coverage 20%.
For assay [3] the target is unchanged. The experiment in a line: ELISA-like assay, Uvitex OB microcapsules on potato lectin-coated wells, surface coverage 100%.
Assay [4] has the same target. The experiment in a line: ELISA-like assay, Uvitex microcapsules on wells coated with 5 ug/well potato lectin, surface coverage 100%.
Assay [5] has the same target. Nature of the assay: ELISA-like assay, Uvitex OB microcapsules on potato lectin-coated wells, surface coverage 4%.
Assay [6] shares this target. The experiment in a line: ELISA-like assay, Uvitex microcapsules on wells coated with 5 ug/well potato lectin, surface coverage 4%.
For assay [7] the target is unchanged. Nature of the assay: ELISA-like assay, lambda-cyhalothrin microcapsules on potato lectin-coated wells, surface coverage 4%.
The target is the same in assay [8]. Nature of the assay: ELISA-like assay, lambda-cyhalothrin microcapsules on potato lectin-coated wells, surface coverage 20%.
Assay [9] has the same target. The experiment in a line: ELISA-like assay, lambda-cyhalothrin microcapsules on potato lectin-coated wells, surface coverage 100%.
The target in assay [10] is unrelated antigen. The experiment in a line: ELISA-like assay, Uvitex microcapsules on wells coated with unrelated antigen, surface coverage 4%.
For assay [11], the target named is unrelated antigen. The experiment in a line: ELISA-like assay, Uvitex microcapsules on wells coated with unrelated antigen, surface coverage 100%.
The target in assay [12] is T1, potato lectin (Sigma) (potato, UniProt Q9S8M0 23-323).
T1 construct: Bought glycoprotein coated on ELISA plates
T1 sequence (looked up): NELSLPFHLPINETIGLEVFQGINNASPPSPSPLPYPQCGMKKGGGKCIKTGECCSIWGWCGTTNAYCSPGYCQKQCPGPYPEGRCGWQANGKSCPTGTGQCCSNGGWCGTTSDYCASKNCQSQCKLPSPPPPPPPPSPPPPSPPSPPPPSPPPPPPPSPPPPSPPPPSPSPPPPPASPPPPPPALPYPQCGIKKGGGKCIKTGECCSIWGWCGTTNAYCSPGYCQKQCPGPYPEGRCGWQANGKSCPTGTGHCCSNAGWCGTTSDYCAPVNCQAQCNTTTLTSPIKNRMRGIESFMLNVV
The experiment in a line: ELISA-like assay, Uvitex microcapsules on potato lectin-coated wells, 25-fold less microcapsules. On the procedure: An ELISA-like assay was performed using high bind half area microplates (Greiner Bio-One) coated with 5 μg/well potato lectin. Control wells included blank wells or wells coated with unrelated antigens. Plates were washed three times with PBS with 0.05%-TWEEN®-20 and blocked with 5% skimmed milk in PBS for 1 to 2 hours. VHH-coupled Uvitex-containing microcapsules were diluted to appropriate densities in 1% skimmed milk in PBS with 0.05%-TWEEN®-20. Five-fold serial dilution series were prepared and allowed to bind to the surface to compare binding of microcapsules coupled with monovalent or bivalent VHH. Microcapsules were added to the antigen-coated or control wells and allowed to bind for 1 hour. Unbound microcapsules were removed by washing five times with PBS with 0.05%-TWEEN®-20. The bottoms of ELISA plate wells were analyzed for bound microcapsules on a macrozoom microscope system (Nikon). Microcapsules were counted using Volocity image analysis software (Perkin Elmer). A DAPI filter was used to visualize Uvitex microcapsules. […] The surface area of microcapsules with coupled bivalent VHH was 15-fold above the surface area of blank microcapsules applied at this microcapsule density while the surface area of microcapsules with monovalent VHH was only six-fold above the surface area of blank microcapsules applied at this microcapsule density. […]

Assay [13] has as its target unrelated antigen. The experiment in a line: ELISA-like assay, Uvitex microcapsules on wells coated with unrelated antigen, surface coverage 20%.
For assay [14], the target named is T1, potato lectin (Sigma). Nature of the assay: ELISA, potato lectin coated at 100 ug/ml, VHH at 3 ug/ml, anti-histidine detection. As for the experimental part: ELISA plates (Maxisorp, Nunc) coated with 100 μl per well 100 μg/ml potato lectin (Sigma) in PBS were coated at 4° C. overnight and coating was continued at room temperature for 1 hour on the next day. Plates were washed three times with PBS/0.05%-TWEEN®-20 and blocked with 5% skimmed milk in PBS for 1 hour. VHH (3 μg/ml) were transferred to the potato lectin-coated plates and VHH antibody fragments were allowed to bind for 1 hour at room temperature. Bound VHH were detected with sequential incubations with monoclonal mouse anti-histidine antibodies (Abd Serotec) and rabbit anti-mouse IgG whole molecule antibodies conjugated with alkaline phosphatase (RaM/AP) (Sigma) in 1% MPBS/0.05%-TWEEN®-20. Unbound antibodies were removed by washing three times with PBS/0.05%-TWEEN®-20 after each antibody incubation. The plates were washed an additional two times with PBS and 100 μl pNPP disodium hexahydrate substrate (Sigma) was added to each well and the absorbance at 405 nm was measured (see Table 2).

Where a chain is given by its changes, count along the chain named.

On to “unrelated control VHH coupled to microcapsules”, for which the area of bound microcapsules (area (unit not given)) in assay [1] came out at 35.4; in assay [3], 16.7; in [5] it was 7.53. Also, the surface area of bound microcapsules (area (unit not given)) in assay [2] turned out to be 43.5; in assay [4], 142; in [6] it was 19.2. Further, the results for the counts of bound microcapsules in [7], in assay [8] and in [9] were 348 counts, 709 counts and 828 counts, respectively.

B1: Bivalent VHH 3E6 coupled to polyurea microcapsules (VHH)
chain: QVQLQESGGGLVQPGGTLSLSCAASGFNVRWYGMGWFRQAPGKEREGVACISALQETTAYADSVKGRFTLSRDNPKNTLSLQMNNLQPEDTGVYYCATTDCDDSSRMTYTSYLGQGTQVTVSSGGGGSGGGSQVQLQESGGGLVQPGGTLSLSCAASGFNVRWYGMGWFRQAPGKEREGVACISALQETTAYADSVKGRFTLSRDNPKNTLSLQMNNLQPEDTGVYYCATTDCDDSSRMTYTSYLGQGTQVTVSSAAAEQKLISEEDLNGAAHHHHHH
modifications: coupled by carbodiimide chemistry to the microcapsule shell
As for B1, the surface area of bound microcapsules (area (unit not given)) with unrelated antigen [10] came to 15; in the assay with unrelated antigen [11], 45.7; in the assay with unrelated antigen [13], 22.1. In addition, the “fold surface area above blank microcapsules” value with potato lectin (Sigma) [12] was 15 fold.

B2: VHH 7D2 (VHH)
VHH: QVQLQESGGGLVQPGRSLKVACAAAGFSLRYYGIGWFRQAPGKEREAVSCTSANDGSTYYRDSVRGRFTISRDDGKNTVYLQMNRLKPEDTAVYYCATTDCDATSWGTWINYYGQGTQVTVSS
notes: not shown: hexahistidine tag
Regarding B2, the “absorbance at 405 nm” value with potato lectin (Sigma) [14] amounted to 4 A405.

B3: VHH 3E6 (VHH)
VHH: QVQLQESGGGLVQPGGTLSLSCAASGFNVRWYGMGWFRQAPGKEREGVACISALQETTAYADSVKGRFTLSRDNPKNTLSLQMNNLQPEDTGVYYCATTDCDDSSRMTYTSYLGQGTQVTVSS
notes: Purified hexahistidine-tagged VHH from E. coli periplasm; not shown: hexahistidine tag
As to B3, in the assay with potato lectin (Sigma) [14], the “absorbance at 405 nm” value was 4 A405.

B4: VHH 3E6 coupled to polyurea microcapsules (VHH)
VHH: B3 VHH
modifications: coupled by carbodiimide (EDC) chemistry to carboxylic acid groups on the microcapsule shell
notes: also called Monovalent VHH 3E6; monovalent VHH; not shown: hexahistidine tag
With B4, the “fold surface area above blank microcapsules” value with potato lectin (Sigma) [12] is 6 fold.

B5: VHH 5D4 (VHH)
VHH: QVQLQESGGGLVQPGGSLRLSCAASGFDMRRFGIGWFRQVAGKEREGVSCSNVHDGTTYYTNDVKGRFTIVRDNTKNMLYLQMNKLRPEDTAVYSCATTDCEATAWGTYRGYFGQGTQVTVSS
notes: not shown: hexahistidine tag
Take B5: the “absorbance at 405 nm” value with potato lectin (Sigma) [14] was found to be 4 A405.

B6: VHH 5C4 (VHH)
VHH: QVQLQESGGGLVQPGGSLRLSCAASGFSLRYFGIGWFRQVAGKEREPVSCSNVRDGNTYYADSVKGRFTISRDNVRNTLYLQMNSLKPEDTAVYSCATTDCEATTWGTYRGYFGQGTQVTVSS
notes: not shown: hexahistidine tag
Consider B6, for which the “absorbance at 405 nm” value with potato lectin (Sigma) [14] came out at 4 A405.

B7: VHH 5G5 (VHH)
VHH: B6 VHH with V40A, P47G, V48I, T78M, S85N, E89D
notes: not shown: hexahistidine tag
As for B7, the “absorbance at 405 nm” value in the assay with potato lectin (Sigma) [14] is 4 A405.
